From article PMC10909901

Tests used:
[1] = target: AtWRKY22-YFP (Arabidopsis thaliana) (UniProt O04609); assay: FRET or BRET
[2] = target: RRS1-R-YFP (Arabidopsis thaliana) (UniProt C4B7M5); assay: FRET or BRET
Chain of UniProt C4B7M5 (C4B7M5 whole entry): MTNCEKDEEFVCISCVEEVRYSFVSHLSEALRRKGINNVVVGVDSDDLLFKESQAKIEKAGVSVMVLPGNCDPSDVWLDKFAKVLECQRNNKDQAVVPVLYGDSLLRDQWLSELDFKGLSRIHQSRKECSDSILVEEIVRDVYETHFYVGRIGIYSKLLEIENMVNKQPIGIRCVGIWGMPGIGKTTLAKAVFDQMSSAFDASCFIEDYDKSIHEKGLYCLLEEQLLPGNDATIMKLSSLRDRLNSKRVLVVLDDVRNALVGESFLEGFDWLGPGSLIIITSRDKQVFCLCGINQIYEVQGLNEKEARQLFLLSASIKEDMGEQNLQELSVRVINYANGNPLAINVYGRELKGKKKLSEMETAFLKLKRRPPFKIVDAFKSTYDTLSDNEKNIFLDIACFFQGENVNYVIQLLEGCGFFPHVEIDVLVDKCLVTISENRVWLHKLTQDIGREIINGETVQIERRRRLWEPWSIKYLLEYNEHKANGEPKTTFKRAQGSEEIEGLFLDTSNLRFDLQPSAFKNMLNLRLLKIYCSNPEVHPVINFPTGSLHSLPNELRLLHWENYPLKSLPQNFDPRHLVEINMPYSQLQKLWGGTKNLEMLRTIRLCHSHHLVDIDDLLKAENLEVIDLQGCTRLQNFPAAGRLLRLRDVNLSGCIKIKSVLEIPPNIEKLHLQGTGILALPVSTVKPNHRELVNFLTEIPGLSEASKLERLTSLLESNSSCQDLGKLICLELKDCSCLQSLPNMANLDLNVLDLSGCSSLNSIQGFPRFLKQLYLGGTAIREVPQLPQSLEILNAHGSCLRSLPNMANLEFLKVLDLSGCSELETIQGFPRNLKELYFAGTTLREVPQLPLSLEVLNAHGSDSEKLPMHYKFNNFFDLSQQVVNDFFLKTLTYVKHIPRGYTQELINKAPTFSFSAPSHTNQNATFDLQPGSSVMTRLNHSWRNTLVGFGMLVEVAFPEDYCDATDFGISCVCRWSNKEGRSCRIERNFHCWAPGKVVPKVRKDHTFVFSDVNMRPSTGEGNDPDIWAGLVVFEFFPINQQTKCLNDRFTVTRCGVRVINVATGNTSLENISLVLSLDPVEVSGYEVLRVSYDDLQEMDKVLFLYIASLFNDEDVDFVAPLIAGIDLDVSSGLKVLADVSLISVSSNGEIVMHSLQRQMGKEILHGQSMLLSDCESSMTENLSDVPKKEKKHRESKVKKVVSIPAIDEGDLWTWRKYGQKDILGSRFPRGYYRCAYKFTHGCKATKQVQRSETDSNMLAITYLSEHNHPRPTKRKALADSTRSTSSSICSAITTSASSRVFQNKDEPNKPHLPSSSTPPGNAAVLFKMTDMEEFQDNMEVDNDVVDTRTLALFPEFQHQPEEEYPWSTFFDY

Chain of UniProt O04609 (O04609 whole entry): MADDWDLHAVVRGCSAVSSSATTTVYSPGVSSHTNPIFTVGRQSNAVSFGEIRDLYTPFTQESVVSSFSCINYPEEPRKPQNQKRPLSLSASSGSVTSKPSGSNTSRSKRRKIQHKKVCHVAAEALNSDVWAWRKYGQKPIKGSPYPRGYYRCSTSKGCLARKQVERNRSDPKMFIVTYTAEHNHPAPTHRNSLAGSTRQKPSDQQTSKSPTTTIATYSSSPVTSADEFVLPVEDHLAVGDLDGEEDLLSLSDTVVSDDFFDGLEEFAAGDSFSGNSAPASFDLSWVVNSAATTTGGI

Substance	FRET efficiency E [1] [%]	mean CFP donor lifetime T in the presence of the acceptor [1] [ns]	FRET efficiency E [2] [%]	mean CFP donor lifetime T in the presence of the acceptor [2] [ns]	Δt (decrease of donor lifetime) [2] [ps]	Δt (decrease of donor lifetime) [1] [ps]
XopJ6^C409A-CFP (natural protein)	9.67	3.36	12.1	3.27	452	
XopJ6_(CN06)-CFP (natural protein)	9.49	3.48	15	3.27	578	365
